Our source for the KD of chANP32A relative to that of huANP32A (fold), Kd and ka relative to chANP32A and huANP32A+33 (fold) values is paper PMC7580981.

The assay has as its target IBV polymerase trimeric complex (Pol3): PA-His, PB1, PB2 (influenza B virus). The experiment in a line: SPR; Biacore T200; […]; running buffer HBS-EP+; 1:1 fit model.

Chain of human ANP32A, purified (GST cleaved) (P39687 whole entry): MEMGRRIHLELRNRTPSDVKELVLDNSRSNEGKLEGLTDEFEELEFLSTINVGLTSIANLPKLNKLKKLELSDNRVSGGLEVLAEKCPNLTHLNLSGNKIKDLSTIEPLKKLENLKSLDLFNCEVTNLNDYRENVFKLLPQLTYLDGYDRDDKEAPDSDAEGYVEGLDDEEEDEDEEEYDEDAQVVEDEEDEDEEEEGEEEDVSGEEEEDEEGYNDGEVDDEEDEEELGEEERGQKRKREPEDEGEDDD

The substance “chicken ANP32A, purified (GST cleaved) (natural protein)” returned a KD of chANP32A relative to that of huANP32A (fold) of 3 fold.

The term Kd denotes the concentration at which binding is half-saturated. “human ANP32A with the 33-amino-acid insert, purified (GST cleaved)” yielded a Kd of 101 nM.

“human ANP32A, purified (GST cleaved) (from UniProt P39687 1-249) (natural protein)”: the Kd worked out at 54.2 nM; the ka relative to chANP32A and huANP32A+33 (fold) was found to be 2 fold.
